In the MegaScale stability set (Tsuboyama et al. 2023):

B1: r4_43_TrROS_Hall (parent)
chain: DLVTIKVPLENLEEIKKAAEKAGFKIVSISYDKENKEVTIVIEKKK

Variants of: B1
Assay: folding stability dG (cDNA display proteolysis); higher = more stable
Conditions: PBS, room temperature

In order of falling “folding stability dG” value:
1. DLVTIKVPLENLEEIKKAAEFAGFKIVSISYDKENKEVTIVIEKKK  4.43 kcal/mol
2. DLVTIKVPLENLEEIKKWAEKAGFKIVSISYDKENKEVTIVIEKKK  4.29 kcal/mol
3. DLVTIKVPLENLEEIKKAAFKAGFKIVSISYDKENKEVTIVIEKKK  4.07 kcal/mol
4. DLVTIKVPLENLEEIKKAAWKAGFKIVSISYDKENKEVTIVIEKKK  3.99 kcal/mol
5. DLVTIKVPLENLEEIKKAWEKAGFKIVSISYDKENKEVTIVIEKKK  3.99 kcal/mol
6. DLVTIKVPLENLEEIKKAVEKAGFKIVSISYDKENKEVTIVIEKKK  3.97 kcal/mol
7. DLVTIKVPLENLEEIKKAALKAGFKIVSISYDKENKEVTIVIEKKK  3.96 kcal/mol
8. DLVTIKVPLENLEEIKKAMEKAGFKIVSISYDKENKEVTIVIEKKK  3.95 kcal/mol
9. DLVTIKVPLENLEEIKKMAEKAGFKIVSISYDKENKEVTIVIEKKK  3.94 kcal/mol
10. DLVTIKVPLENLEEIKKAAEIAGFKIVSISYDKENKEVTIVIEKKK  3.93 kcal/mol
11. DLVTIKVPLENLEEIKKAAYKAGFKIVSISYDKENKEVTIVIEKKK  3.92 kcal/mol
12. DLVTIKVPLENLEEIKKAAECAGFKIVSISYDKENKEVTIVIEKKK  3.87 kcal/mol
13. DLVTIKVPLENLEEIKKYAEKAGFKIVSISYDKENKEVTIVIEKKK  3.84 kcal/mol
14. DLVTIKVPLENLEEIKKAAEGAGFKIVSISYDKENKEVTIVIEKKK  3.83 kcal/mol
15. DLVTIKVPLENLEEIKKATEKAGFKIVSISYDKENKEVTIVIEKKK  3.8 kcal/mol
16. DLVTIKVPLENLEEIKKAAEAAGFKIVSISYDKENKEVTIVIEKKK  3.79 kcal/mol
17. DLVTIKVPLENLEEIKKAAEHAGFKIVSISYDKENKEVTIVIEKKK  3.78 kcal/mol
18. DLVTIKVPLENLEEIKKVAEKAGFKIVSISYDKENKEVTIVIEKKK  3.73 kcal/mol
19. DLVTIKVPLENLEEIKKAARKAGFKIVSISYDKENKEVTIVIEKKK  3.72 kcal/mol
20. DLVTIKVPLENLEEIKKAAMKAGFKIVSISYDKENKEVTIVIEKKK  3.72 kcal/mol
21. DLVTIKVPLENLEEIKKRAEKAGFKIVSISYDKENKEVTIVIEKKK  3.72 kcal/mol
22. DLVTIKVPLENLEEIKKALEKAGFKIVSISYDKENKEVTIVIEKKK  3.69 kcal/mol
23. DLVTIKVPLENLEEIKKASEKAGFKIVSISYDKENKEVTIVIEKKK  3.69 kcal/mol
24. DLVTIKVPLENLEEIKKAAAKAGFKIVSISYDKENKEVTIVIEKKK  3.68 kcal/mol
25. DLVTIKVPLENLEEIKKAYEKAGFKIVSISYDKENKEVTIVIEKKK  3.68 kcal/mol
26. DLVTIKVPLENLEEIKKAACKAGFKIVSISYDKENKEVTIVIEKKK  3.67 kcal/mol
27. DLVTIKVPLENLEEIKKAASKAGFKIVSISYDKENKEVTIVIEKKK  3.66 kcal/mol
28. DLVTIKVPLENLEEIKKAAIKAGFKIVSISYDKENKEVTIVIEKKK  3.65 kcal/mol
29. DLVTIKVPLENLEEIKKSAEKAGFKIVSISYDKENKEVTIVIEKKK  3.65 kcal/mol
30. DLVTIKVPLENLEEIKKAAKKAGFKIVSISYDKENKEVTIVIEKKK  3.62 kcal/mol
31. DLVTIKVPLENLEEIKKQAEKAGFKIVSISYDKENKEVTIVIEKKK  3.62 kcal/mol
32. DLVTIKVPLENLEEIKKAIEKAGFKIVSISYDKENKEVTIVIEKKK  3.61 kcal/mol
33. DLVTIKVPLENLEEIKKAAHKAGFKIVSISYDKENKEVTIVIEKKK  3.6 kcal/mol
34. DLVTIKVPLENLEEIKKAAVKAGFKIVSISYDKENKEVTIVIEKKK  3.56 kcal/mol
35. DLVTIKVPLENLEEIKKAANKAGFKIVSISYDKENKEVTIVIEKKK  3.55 kcal/mol
36. DLVTIKVPLENLEEIKKANEKAGFKIVSISYDKENKEVTIVIEKKK  3.55 kcal/mol
37. DLVTIKVPLENLEEIKKAFEKAGFKIVSISYDKENKEVTIVIEKKK  3.52 kcal/mol
38. DLVTIKVPLENLEEIKKNAEKAGFKIVSISYDKENKEVTIVIEKKK  3.5 kcal/mol
39. DLVTIKVPLENLEEIKKAADKAGFKIVSISYDKENKEVTIVIEKKK  3.49 kcal/mol
40. DLVTIKVPLENLEEIKKAHEKAGFKIVSISYDKENKEVTIVIEKKK  3.45 kcal/mol
41. DLVTIKVPLENLEEIKKACEKAGFKIVSISYDKENKEVTIVIEKKK  3.44 kcal/mol
42. DLVTIKVPLENLEEIKKAAGKAGFKIVSISYDKENKEVTIVIEKKK  3.43 kcal/mol
43. DLVTIKVPLENLEEIKKTAEKAGFKIVSISYDKENKEVTIVIEKKK  3.43 kcal/mol
44. DLVTIKVPLENLEEIKKAQEKAGFKIVSISYDKENKEVTIVIEKKK  3.37 kcal/mol
45. DLVTIKVPLENLEEIKKAKEKAGFKIVSISYDKENKEVTIVIEKKK  3.32 kcal/mol
46. DLVTIKVPLENLEEIKKAAQKAGFKIVSISYDKENKEVTIVIEKKK  3.28 kcal/mol
47. DLVTIKVPLENLEEIKKAATKAGFKIVSISYDKENKEVTIVIEKKK  3.27 kcal/mol
48. DLVTIKVPLENLEEIKKAGEKAGFKIVSISYDKENKEVTIVIEKKK  3.23 kcal/mol
49. DLVTIKVPLENLEEIKKAAEDAGFKIVSISYDKENKEVTIVIEKKK  3.16 kcal/mol
50. DLVTIKVPLENLEEIKKAAPKAGFKIVSISYDKENKEVTIVIEKKK  3.12 kcal/mol
51. DLVTIKVPLENLEEIKKAREKAGFKIVSISYDKENKEVTIVIEKKK  3.11 kcal/mol
52. DLVTIKVPLENLEEIKKAAEEAGFKIVSISYDKENKEVTIVIEKKK  2.94 kcal/mol
53. DLVTIKVPLENLEEIKKAEEKAGFKIVSISYDKENKEVTIVIEKKK  2.89 kcal/mol
54. DLVTIKVPLENLEEIKKPAEKAGFKIVSISYDKENKEVTIVIEKKK  1.8 kcal/mol
55. DLVTIKVPLENLEEIKKADEKAGFKIVSISYDKENKEVTIVIEKKK  1.76 kcal/mol
56. DLVTIKVPLENLEEIKKAPEKAGFKIVSISYDKENKEVTIVIEKKK  1.44 kcal/mol
